Source: patent EP1241259A1 (UNIVERSITE LIBRE DE BRUXELLES, dated 2002)

Target: ORL1 (Opioid Receptor-Like 1) receptor stably expressed on recombinant CHO(ORL1^+) cells (UniProt P41146 1-370, limits assumed)
Experiment: cell-based or functional assay

Sequence of ORL1 (Opioid Receptor-Like 1) receptor stably expressed on recombinant CHO(ORL1^+) cells (P41146 whole entry): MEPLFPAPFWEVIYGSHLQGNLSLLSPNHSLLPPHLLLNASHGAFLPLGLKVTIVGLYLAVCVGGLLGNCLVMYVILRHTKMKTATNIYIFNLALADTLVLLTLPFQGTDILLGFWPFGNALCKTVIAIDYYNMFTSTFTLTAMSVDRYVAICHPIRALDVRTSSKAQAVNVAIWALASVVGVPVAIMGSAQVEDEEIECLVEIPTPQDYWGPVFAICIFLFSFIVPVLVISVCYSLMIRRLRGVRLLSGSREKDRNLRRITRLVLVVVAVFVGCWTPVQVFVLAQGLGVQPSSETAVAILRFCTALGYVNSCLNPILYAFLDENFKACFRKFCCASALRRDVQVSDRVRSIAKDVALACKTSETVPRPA

Binder: YGGFTGARKSARKLANQ [^1Tyr analogue of the synthetic heptadecapeptide]
- inhibition of forskolin-induced accumulation of cAMP in CHO cells expressing the receptor, IC50: 1 nM
